According to US20180086836A1 (GLENMARK PHARMACEUTICALS S A, published 2018):
Changes are numbered by the printed parent chain. Numbers in names are those of the source.

Columns and labels:
[1] = target: T1, recombinant human N-terminal CCR6 Fc (human); assay: SPR, human CCR6 N-terminal peptide Fc on the chip, FAB as analyte
T1 construct: also called human CCR6-Fc; hsCCR6-Nter-Fc

[2] = target: T2, recombinant cynomologus N-terminal CCR6 peptide Fc (cynomolgus monkey; human); assay: SPR, cynomolgus CCR6 N-terminal Fc fusion coupled on the sensor chip, FAB as analyte
T2 construct: It differs from the human construct only in the CCR6 N-terminus; also called Cyno CCR6-Fc; cynoCCR6-Nter-Fc

[3] = target: T2, recombinant cynomologus N-terminal CCR6 …; assay: SPR, FAB as analyte, fusion protein coupled onto the sensor chip
[4] = target: T1, recombinant human N-terminal CCR6 Fc; assay: as above
[5] = target: T1, recombinant human N-terminal CCR6 Fc; assay: SPR, human CCR6 N-terminal Fc fusion coupled on the sensor chip, FAB as analyte
human CCR6 = target: T3, human CCR6 (human, UniProt P51684 1-374); assay: flow cytometry on BAF cells transfected with human CCR6, hybridoma supernatant, anti-mouse IgG-PE
T3 construct: Full length human CCR6 on transfected BAF or CHO cells, or native on human PBMCs; also called hsCCR6; CCR6 receptor
T3 sequence: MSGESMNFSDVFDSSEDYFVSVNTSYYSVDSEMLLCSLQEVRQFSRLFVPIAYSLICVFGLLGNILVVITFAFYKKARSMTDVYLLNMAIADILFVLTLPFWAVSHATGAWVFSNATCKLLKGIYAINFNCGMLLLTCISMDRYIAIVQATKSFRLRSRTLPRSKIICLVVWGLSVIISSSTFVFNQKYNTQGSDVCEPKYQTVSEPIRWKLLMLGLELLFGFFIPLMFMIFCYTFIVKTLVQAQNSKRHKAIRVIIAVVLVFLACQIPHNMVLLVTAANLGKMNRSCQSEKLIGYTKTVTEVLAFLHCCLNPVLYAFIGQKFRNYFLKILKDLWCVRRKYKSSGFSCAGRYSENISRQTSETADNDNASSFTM
Protocol: Antibody titers, specificity and production by hybridomas and recombinant antibody candidates were determined by flow cytometry. Briefly, BAF cells transfected with human CCR6 (Generation of these transfected cells is detailed in example 1) were cultured and 2×10⁵ cells were distributed in a 96 well V bottom plate (TPP, Trasadingen, Switzerland), and centrifuged for three minutes at 1300 rpm; supernatants were discarded, cells were collected and analyzed by flow cytometry as described below. Cells were resuspended in 50 μl of hybridoma supernatant or in 50 μl of FACS buffer (PBS, 2% FBS, 10% Versene (Invitrogen, USA)) with 5 μg/mL of isotype control or commercial mouse anti-human CCR6 antibody (clone 11A9, BD Biosciences, Allschwil, Switzerland). Cells were incubated for 30 minutes on ice, washed two times and resuspended in 50 μl of FACS buffer. An anti-mouse IgG-Phycoerithrin-PE (BD Biosciences, Allschwil, Switzerland) diluted 1/200 was used to detect CCR6-specific mouse hybridoma and the isotype control antibody. Cells were incubated for 15 minutes on ice, washed once, resuspended in 400 μl of FACS buffer and analyzed on the FACS instrument (Cyan, Beckman Coulter International S.A., Nyon, Switzerland).

[6] = target: T2, recombinant cynomologus N-terminal CCR6 …; assay: direct ELISA, Fc fusion coated at 2 µg/ml, anti-human F(ab')2-HRP
Protocol: (§1) FIG. 8: Direct binding ELISA on immobilized recombinant human N-terminal CCR6 Fc. Binding of humanized 4H11 H5L1 antibody on human N terminus fragment of CCR6 was measured by direct ELISA. Various concentrations (ranging from 10 to 0.00006 μg/ml) of humanized 4H11 H5L1 in IgG1 and IgG4HS backbones were incubated with 2 μg/ml of either recombinant human N terCCR6-Fc tagged protein (FIG. 8A) or recombinant cynomologus N-terminal peptide Fc (FIG. 8B), coated overnight at 4° C. in a 96-well plate. Binding of humanized 4H11 H5L1 antibody to Nter CCR6-Fc protein was detected by horseradish peroxidase (HRP)-conjugated anti-human (Fab)′2-specific antibody.
(§2) A binding ELISA was performed to test the reactivity of 4H11 VH5/VL1 IgG1 and 4H11 VH5/VL1 IgG4HS antibodies on peptides consisting of the N-terminal region of CCR6 from human and cynomologus species. Briefly, 96 well-microtiter plates (Costar USA, distributor VWR AG, Nyon, Switzerland) were coated with 100 μl of recombinant human and cynomologus N-terminus peptide-Fc at 2 μg/ml in PBS. Plates were incubated overnight at 4° C. and were then blocked with PBS 2% BSA (Bovine Serum Albumine, PAA Laboratories, Pasching, Austria) at room temperature (RT) for one hour. The blocking solution was removed and various concentrations of 4H11 VH5/VL1 IgG1 and 4H11 VH5/VL1 IgG4HS were added. The plates were incubated at RT for 1 hour, then washed six times with PBS 0.01% Tween-20 (Sigma-Aldrich Chemie GmbH, Buchs, Switzerland) and a goat-anti human Ig F(ab′)2 fragment specific-HRP (Jackson ImmunoResearch Europe Ltd, Newmarket, UK). After washing, the plates were incubated with TMB substrate (Bio-Rad Laboratories AG, Reinach, Switzerland) to reveal antibody binding. The reaction was stopped by adding 2M H₂SO₄ and the optical density was read at 450 nm (OD 450 nm) on a Synergy HT2 spectrophotometer (Biotek, USA; distributor: WITTEC AG, Littau, Switzerland).

[7] = target: T1, recombinant human N-terminal CCR6 Fc; assay: as above
Protocol: as §1, §2

[8] = target: T1, recombinant human N-terminal CCR6 Fc; assay: SPR (Biacore) off-rate ranking of scFv on the human CCR6 N-terminal Fc fusion

B1: VH5/VL1 L1-N28T FAB (Fab, V domains shown)
VH: EVQLVESGGGLVQPGGSLRLSCAASGFSFSDYYMYWVRQAPGKGLEWVSYITNGGITYYPDSVKGRFTISRDNSKNTLYLQMNSLRAEDTAVYYCTSPLRGAWFAYWGQGTLVTVSS
VL: DVVMTQSPLSLPVTLGQPASISCRSSQSIVHSTGNTYLEWYQQRPGQSPRLLIYKVSNRFSGVPDRFSGSGSGTDFTLKISRVEAEDVGVYYCFQGSHVPLTFGQGTKLEIKR
notes: CDR-L1 deamidation-site variant; copies: 1 + 1
[1]
  binding result: binds

B2: VH5/VL1 L1-N28S FAB (Fab, V domains shown)
VH: B1 VH
VL: B1 VL with T33S
notes: as for B1
[1]
  binding result: binds

B3: VH5/VL1 FAB (parental) (Fab, V domains shown)
VH: B1 VH
VL: DVVMTQSPLSLPVTLGQPASISCRSSQSIVHSNGNTYLEWYQQRPGQSPRLLIYKVSNRFSGVPDRFSGSGSGTDFTLKISRVEAEDVGVYYCFQGSHVPLTFGQGTKLEIK
notes: Human FAB fragment; also called parental FAB; parental VH5/VL1 FAB
[2]
  Kd: 33.6 nM

B4: VH5/VL1 L1-G29A FAB (Fab, V domains shown)
VH: B1 VH
VL: B3 VL with G34A
notes: VH5/VL1 FAB fragment with G29A in CDR-L1
[1]
  binding result: binds

B5: VH5/VL1-B3C9-G29A FAB (Fab, name in Kabat numbering, V domains shown)
VH: B1 VH with N53T, I56R
VL: B3 VL with G34A, S97T, H98Y, V99Y
[3]
  Kd: ~1 nM
  fold improvement in affinity compared to the parental VH5/VL1 FAB: ~30 fold
[4]
  Kd: ~0.5 nM
  fold improvement in KD value over the first pair of FAB constructs: 2 fold
  fold improvement in affinity compared to the parental VH5/VL1 FAB: ~40 fold
[2]
  Kd: 1.23 nM
[5]
  Kd: 0.544 nM

B6: VH5/VL1-B3G8-G29A FAB (Fab, name in Kabat numbering, V domains shown)
VH: B1 VH with N53T, I56R
VL: B3 VL with G34A, S97T, H98Y, V99L
[3]
  Kd: ~1 nM
  fold improvement in affinity compared to the parental VH5/VL1 FAB: ~30 fold
[4]
  Kd: ~0.5 nM
  fold improvement in KD value over the first pair of FAB constructs: 2 fold
  fold improvement in affinity compared to the parental VH5/VL1 FAB: ~40 fold
[2]
  Kd: 1.17 nM
[5]
  Kd: 0.526 nM

B7: VH5/VL1-C9-G29A FAB (Fab, V domains shown)
VH: B1 VH
VL: B3 VL with G34A, S97T, H98Y, V99Y
[4]
  fold improvement in KD value compared to the parental FAB: ~20 fold
[2]
  Kd: 2.79 nM
[5]
  Kd: 1.28 nM

B8: VH5/VL1-G8-G29A FAB (Fab, V domains shown)
VH: B1 VH
VL: B3 VL with G34A, S97T, H98Y, V99L
[4]
  fold improvement in KD value compared to the parental FAB: ~20 fold
[2]
  Kd: 2.19 nM
[5]
  Kd: 1 nM

B9: 4H11 (antibody, V domains shown)
VH: EVKLVESGGGLVQPGGSLKLSCATSGFSFSDYYMYWIRQTPEKRLEWVAYITNGGITYYPDTVKGRFTISRDNAKNTLYLQMSRLRSEDTAMYYCTSPLRGAWFAYWGQGTLVTVSS
VL: B3 VL with V3I, T14S, Q17D, P18Q, Q42L, R44K, R50K, V88L, V90L, Q105A
notes: parent of the chimeric 4H11 antibody m1; also called murine antibody 4H11; hybridoma clone 4H11
Human CCR6
  binding result: binds

B10: 4H11 VH5/VL1 IgG1 antibody (antibody, V domains shown)
VH: B1 VH
VL: B1 VL with T33N
notes: also called H5/L1; VH5/VL1 antibody
[6]
  EC50 (read off the curve): ~0.2 µg/mL
[7]
  EC50 (read off the curve): ~0.07 µg/mL

B11: VH5/VL1-L3-G8 scFv variant (scFv)
scFv: EVQLVESGGGLVQPGGSLRLSCAASGFSFSDYYMYWVRQAPGKGLEWVSYITNGGITYYPDSVKGRFTISRDNSKNTLYLQMNSLRAEDTAVYYCTSPLRGAWFAYWGQGTLVTVSSGGGGSGGGGSGGGGSTDVVMTQSPLSLPVTLGQPASISCRSSQSIVHSNGNTYLEWYQQRPGQSPRLLIYKVSNRFSGVPDRFSGSGSGTDFTLKISRVEAEDVGVYYCFQGTYLPLTFGQGTKLEIK
[8]
  binding result: binds
